Data: patent publication US20120220489A1
Values belong to the substance of their own block, whether it stands above or below them.

What was measured:
[1] = target: pErk1/2-BSA 2.7x peptide-protein conjugate (human; bovine); experiment: RPA, normal assay
[2] = target: pErk1/2-BSA 2.7x peptide-protein conjugate (human; bovine); experiment: RPA standard curve, assay 1, LOD back-calculated from one-site fit
[3] = target: ERK1 (p44), human, Cell Signaling Technology 7416 (human) (UniProt P27361); experiment: RPA, competition: +free H3 peptide 100 nM
[4] = target: ERK2 (p42), human, Biosource PHO 0104 (human) (UniProt P28482); experiment: RPA, competition: +free H3 peptide 100 nM
UniProt P28482, sequence (P28482 2-360 limits assumed): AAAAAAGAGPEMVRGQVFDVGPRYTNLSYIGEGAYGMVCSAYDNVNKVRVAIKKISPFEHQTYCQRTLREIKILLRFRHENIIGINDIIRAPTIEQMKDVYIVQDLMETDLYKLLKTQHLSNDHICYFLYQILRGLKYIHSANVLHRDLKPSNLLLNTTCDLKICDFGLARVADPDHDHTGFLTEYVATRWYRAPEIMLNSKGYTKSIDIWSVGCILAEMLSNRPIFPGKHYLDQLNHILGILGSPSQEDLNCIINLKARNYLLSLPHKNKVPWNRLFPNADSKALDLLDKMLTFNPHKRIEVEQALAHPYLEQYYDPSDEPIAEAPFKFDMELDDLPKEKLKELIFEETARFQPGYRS

[5] = target: Erk1-BSA 2.7x peptide-protein conjugate (human; bovine); experiment: RPA, competition: +free H3 peptide 100 nM
Erk1-BSA 2.7x peptide-protein conjugate (human; bovine), sequence (peptide, as listed by the source limits assumed, chain 1 of 2): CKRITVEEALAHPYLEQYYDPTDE
Erk1-BSA 2.7x peptide-protein conjugate (human; bovine), sequence (P02769 25-607 limits assumed, chain 2 of 2): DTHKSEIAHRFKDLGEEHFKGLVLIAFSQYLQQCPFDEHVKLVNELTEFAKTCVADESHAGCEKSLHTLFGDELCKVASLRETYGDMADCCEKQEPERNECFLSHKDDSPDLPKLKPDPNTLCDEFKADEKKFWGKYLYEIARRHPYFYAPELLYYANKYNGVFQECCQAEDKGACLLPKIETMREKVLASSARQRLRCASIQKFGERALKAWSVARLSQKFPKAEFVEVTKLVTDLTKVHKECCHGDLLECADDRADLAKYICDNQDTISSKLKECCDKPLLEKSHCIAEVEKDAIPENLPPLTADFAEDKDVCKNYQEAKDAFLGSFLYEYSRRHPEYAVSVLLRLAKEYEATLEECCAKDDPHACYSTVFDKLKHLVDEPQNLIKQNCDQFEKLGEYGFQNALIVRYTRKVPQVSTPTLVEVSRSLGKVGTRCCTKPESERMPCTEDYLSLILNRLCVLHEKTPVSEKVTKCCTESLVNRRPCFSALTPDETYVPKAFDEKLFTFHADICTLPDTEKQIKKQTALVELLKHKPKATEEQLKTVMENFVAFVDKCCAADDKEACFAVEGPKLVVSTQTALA

[6] = target: pErk1/2-BSA 2.7x peptide-protein conjugate (human; bovine); experiment: RPA, competition: +free H3 peptide 100 nM
[7] = target: ERK1 (p42) active (phospho), human, Active Motif 31 152 (human) (UniProt P27361); experiment: RPA, competition: +free H3 peptide 10000 nM
[8] = target: ERK1 (p44) active (GST tagged), human, Invitrogen PV 3311 (human) (UniProt P27361); experiment: RPA, competition: +free H3 peptide 10000 nM
[9] = target: ERK1 (p44) inactive (GST tagged), human, Invitrogen PV 3312 (human) (UniProt P27361); experiment: RPA, competition: +free H3 peptide 10000 nM
[10] = target: ERK1 (p44), human, Cell Signaling Technology 7416 (human) (UniProt P27361); experiment: RPA, competition: +free H3 peptide 10000 nM
[11] = target: ERK2 (p42), human, Biosource PHO 0104 (human) (UniProt P28482); experiment: RPA, competition: +free H3 peptide 10000 nM
[12] = target: Erk1-BSA 2.7x peptide-protein conjugate (human; bovine); experiment: RPA, competition: +free H3 peptide 10000 nM
[13] = target: Histone H3 recombinant protein, calf, Roche 11 034 758 001 (calf) (UniProt P68432); experiment: RPA, competition: +free H3 peptide 10000 nM
[14] = target: Histone H3 recombinant protein, human, Upstate 14-494 (human) (UniProt P68431); experiment: RPA, competition: +free H3 peptide 10000 nM
[15] = target: Histone H3-BSA 2.7x peptide-protein conjugate (bovine); experiment: RPA, competition: +free H3 peptide 10000 nM
Histone H3-BSA 2.7x peptide-protein conjugate (bovine), sequence (P02769 25-607 limits assumed): as the sequence (P02769 25-607 limits assumed, chain 2 of 2) above

[16] = target: pErk1/2-BSA 2.7x peptide-protein conjugate (human; bovine); experiment: RPA, competition: +free H3 peptide 10000 nM
[17] = target: pRb recombinant protein, human, Active Motif 31 128 (human) (UniProt P06400); experiment: RPA, competition: +free H3 peptide 10000 nM
UniProt P06400, sequence (P06400 whole entry): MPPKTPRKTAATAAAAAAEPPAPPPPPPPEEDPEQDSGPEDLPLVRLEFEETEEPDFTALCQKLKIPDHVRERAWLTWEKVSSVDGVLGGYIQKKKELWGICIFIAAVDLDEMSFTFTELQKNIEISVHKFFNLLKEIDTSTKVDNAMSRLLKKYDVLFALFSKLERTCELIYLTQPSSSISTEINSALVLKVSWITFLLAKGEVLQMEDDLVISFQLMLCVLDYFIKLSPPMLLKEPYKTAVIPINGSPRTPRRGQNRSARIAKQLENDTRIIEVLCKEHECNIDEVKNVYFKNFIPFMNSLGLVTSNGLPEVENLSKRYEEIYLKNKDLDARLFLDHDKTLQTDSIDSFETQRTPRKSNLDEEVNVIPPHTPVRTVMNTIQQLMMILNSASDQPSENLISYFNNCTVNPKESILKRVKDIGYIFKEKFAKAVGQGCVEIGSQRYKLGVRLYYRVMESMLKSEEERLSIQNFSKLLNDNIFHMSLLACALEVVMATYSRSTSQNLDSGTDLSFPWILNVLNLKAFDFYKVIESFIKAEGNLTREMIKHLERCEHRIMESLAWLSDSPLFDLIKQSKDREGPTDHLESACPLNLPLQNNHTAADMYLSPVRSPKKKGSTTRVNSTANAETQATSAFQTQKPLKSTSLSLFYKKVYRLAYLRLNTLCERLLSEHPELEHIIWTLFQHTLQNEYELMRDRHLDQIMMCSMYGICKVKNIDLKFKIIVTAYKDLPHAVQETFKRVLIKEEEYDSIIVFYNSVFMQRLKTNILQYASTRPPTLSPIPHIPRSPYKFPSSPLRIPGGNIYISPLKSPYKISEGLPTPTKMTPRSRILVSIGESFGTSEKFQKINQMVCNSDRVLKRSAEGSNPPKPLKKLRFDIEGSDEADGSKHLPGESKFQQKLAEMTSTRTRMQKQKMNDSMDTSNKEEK

[18] = target: pRb-BSA 1x peptide-protein conjugate (bovine); experiment: RPA, competition: +free H3 peptide 10000 nM
pRb-BSA 1x peptide-protein conjugate (bovine), sequence (P02769 25-607 limits assumed): as the sequence (P02769 25-607 limits assumed, chain 2 of 2) above

[19] = target: Histone H3 recombinant protein, human, Upstate 14-494 (human) (UniProt P68431); experiment: RPA standard curve, assay 1, LOD back-calculated from one-site fit
[20] = target: Histone H3-BSA 2.7x peptide-protein conjugate (bovine); experiment: as above
[21] = target: Histone H3 recombinant protein, human, Upstate 14-494 (human) (UniProt P68431); experiment: RPA standard curve, assay 2, LOD back-calculated from one-site fit
[22] = target: Histone H3-BSA 2.7x peptide-protein conjugate (bovine); experiment: as above
[23] = target: ERK1 (p42) active (phospho), human, Active Motif 31 152 (human) (UniProt P27361); experiment: RPA, competition: +free Erk1 peptide 1000 nM
[24] = target: ERK1 (p44) active (GST tagged), human, Invitrogen PV 3311 (human) (UniProt P27361); experiment: RPA, competition: +free Erk1 peptide 1000 nM
[25] = target: ERK1 (p44) inactive (GST tagged), human, Invitrogen PV 3312 (human) (UniProt P27361); experiment: RPA, competition: +free Erk1 peptide 1000 nM
[26] = target: ERK1 (p44), human, Cell Signaling Technology 7416 (human) (UniProt P27361); experiment: RPA, competition: +free Erk1 peptide 1000 nM
[27] = target: ERK2 (p42), human, Biosource PHO 0104 (human) (UniProt P28482); experiment: RPA, competition: +free Erk1 peptide 1000 nM
[28] = target: Erk1-BSA 2.7x peptide-protein conjugate (human; bovine); experiment: RPA, competition: +free Erk1 peptide 1000 nM
[29] = target: Histone H3 recombinant protein, calf, Roche 11 034 758 001 (calf) (UniProt P68432); experiment: RPA, competition: +free Erk1 peptide 1000 nM
[30] = target: Histone H3 recombinant protein, human, Upstate 14-494 (human) (UniProt P68431); experiment: RPA, competition: +free Erk1 peptide 1000 nM
[31] = target: Histone H3-BSA 2.7x peptide-protein conjugate (bovine); experiment: RPA, competition: +free Erk1 peptide 1000 nM
[32] = target: pErk1/2-BSA 2.7x peptide-protein conjugate (human; bovine); experiment: RPA, competition: +free Erk1 peptide 1000 nM
[33] = target: pRb recombinant protein, human, Active Motif 31 128 (human) (UniProt P06400); experiment: RPA, competition: +free Erk1 peptide 1000 nM
[34] = target: pRb-BSA 1x peptide-protein conjugate (bovine); experiment: RPA, competition: +free Erk1 peptide 1000 nM
[35] = target: ERK1 (p44) inactive (GST tagged), human, Invitrogen PV 3312 (human) (UniProt P27361); experiment: RPA standard curve, assay 1, LOD back-calculated from one-site fit
[36] = target: Erk1-BSA 2.7x peptide-protein conjugate (human; bovine); experiment: as above
[37] = target: pErk1/2-BSA 2.7x peptide-protein conjugate (human; bovine); experiment: RPA, 8 point dilution series of the peptide standard in buffer, assay 2

pErk1/2-BSA 2.7x peptide-protein conjugate (human; bovine), sequence (P02769 25-607 limits assumed): as the sequence (P02769 25-607 limits assumed, chain 2 of 2) above

maximum standard curve signal [1]: 3.47 RFI
LOD [2]: 0.028 nM
Substance: p44/42 MAPK phospho (pERK1/2) Thr202/Tyr204 antibody, Cell Signaling Technology #9101

maximum standard curve signal [3]: < 0.01 RFI
maximum standard curve signal [4]: < 0.01 RFI
maximum standard curve signal [5]: 0.01 RFI
maximum standard curve signal [6]: < 0.01 RFI
maximum standard curve signal [7]: < 0.01 RFI
maximum standard curve signal [8]: < 0.01 RFI
maximum standard curve signal [9]: < 0.01 RFI
maximum standard curve signal [10]: < 0.01 RFI
maximum standard curve signal [11]: < 0.01 RFI
maximum standard curve signal [12]: 0.01 RFI
maximum standard curve signal [13]: < 0.01 RFI
maximum standard curve signal [14]: 0.07 RFI
maximum standard curve signal [15]: 0.19 RFI
maximum standard curve signal [16]: 0.02 RFI
maximum standard curve signal [17]: < 0.01 RFI
maximum standard curve signal [18]: < 0.01 RFI
LOD [19]: 0.133 nM
LOD [20]: 0.104 nM
LOD [21]: 0.178 nM
LOD [22]: 0.141 nM
Substance: Histone H3 antibody, Abcam ab1791

maximum standard curve signal [23]: 0.01 RFI
maximum standard curve signal [24]: 0.02 RFI
maximum standard curve signal [25]: 0.02 RFI
maximum standard curve signal [26]: < 0.01 RFI
maximum standard curve signal [27]: 0.01 RFI
maximum standard curve signal [28]: 0.14 RFI
maximum standard curve signal [29]: 0.01 RFI
maximum standard curve signal [30]: 0.01 RFI
maximum standard curve signal [31]: 0.02 RFI
maximum standard curve signal [32]: 0.01 RFI
maximum standard curve signal [33]: 0.01 RFI
maximum standard curve signal [34]: 0.01 RFI
LOD [35]: 0.059 nM
LOD [36]: 0.045 nM
mean signal (standard curve) [37]: 0.008 RFI
Substance: p44/42 MAPK (Erk1/2) antibody, Biosource 44-654G
